In the supplement of paper PMC10065799, “High-throughput profiling of sequence recognition by tyrosine kinases and SH2 domains using bacterial peptide display” (eLife, 2023):

Legend:
c-Src = test: phosphorylation enrichment, bacterial display (enrichment ratio); higher = better substrate or ligand; peptides without Tyr show the background
EPHB1 = EPHB1 (UniProt P54762); test: as above
MERTK = MERTK (UniProt Q12866); test: as above
c-Abl (mouse) = test: as above
Fyn = Fyn (UniProt P06241); test: as above
Sequence of Fyn (P06241 whole entry, looked up): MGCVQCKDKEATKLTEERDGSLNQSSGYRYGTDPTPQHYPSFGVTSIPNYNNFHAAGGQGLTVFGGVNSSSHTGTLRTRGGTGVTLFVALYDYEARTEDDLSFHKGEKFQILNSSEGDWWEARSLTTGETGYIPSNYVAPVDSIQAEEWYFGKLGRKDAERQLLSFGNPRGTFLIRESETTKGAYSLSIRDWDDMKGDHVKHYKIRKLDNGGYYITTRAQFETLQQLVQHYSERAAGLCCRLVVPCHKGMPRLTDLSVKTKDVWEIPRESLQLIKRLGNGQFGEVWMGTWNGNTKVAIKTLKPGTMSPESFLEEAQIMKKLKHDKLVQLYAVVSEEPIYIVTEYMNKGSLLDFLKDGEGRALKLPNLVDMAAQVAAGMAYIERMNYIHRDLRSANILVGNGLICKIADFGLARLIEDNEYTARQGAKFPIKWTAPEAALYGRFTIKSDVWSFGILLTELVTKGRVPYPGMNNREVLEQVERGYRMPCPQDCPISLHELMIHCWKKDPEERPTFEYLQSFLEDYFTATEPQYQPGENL

Fes = Fes (UniProt P07332); test: as above
Fer (mouse) = test: as above
Hck = Hck (UniProt P08631); test: as above
FGFR3 = FGFR3 (UniProt P22607); test: as above
Sequence of FGFR3 (P22607 whole entry, looked up): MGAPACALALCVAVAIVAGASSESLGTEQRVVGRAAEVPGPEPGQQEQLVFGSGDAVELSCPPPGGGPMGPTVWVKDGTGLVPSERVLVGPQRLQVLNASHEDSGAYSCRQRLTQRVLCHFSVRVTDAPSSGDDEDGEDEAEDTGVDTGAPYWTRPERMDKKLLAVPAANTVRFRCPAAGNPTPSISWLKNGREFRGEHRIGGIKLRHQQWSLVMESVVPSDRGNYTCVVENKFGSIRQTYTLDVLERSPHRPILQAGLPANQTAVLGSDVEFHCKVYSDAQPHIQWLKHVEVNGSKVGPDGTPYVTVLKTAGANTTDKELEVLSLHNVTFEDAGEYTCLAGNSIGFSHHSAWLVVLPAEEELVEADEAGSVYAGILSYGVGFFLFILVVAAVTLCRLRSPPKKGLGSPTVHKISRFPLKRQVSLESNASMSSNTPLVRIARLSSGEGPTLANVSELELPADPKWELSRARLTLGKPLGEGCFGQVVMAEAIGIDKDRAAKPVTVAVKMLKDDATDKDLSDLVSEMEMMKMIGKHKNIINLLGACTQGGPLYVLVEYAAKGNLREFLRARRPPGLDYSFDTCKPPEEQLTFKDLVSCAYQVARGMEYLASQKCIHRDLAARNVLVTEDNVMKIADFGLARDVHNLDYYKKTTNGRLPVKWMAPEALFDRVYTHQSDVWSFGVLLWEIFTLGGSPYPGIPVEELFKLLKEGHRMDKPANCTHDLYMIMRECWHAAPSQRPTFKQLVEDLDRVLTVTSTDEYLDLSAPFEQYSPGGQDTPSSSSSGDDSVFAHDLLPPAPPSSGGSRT

FGFR1 = FGFR1 (UniProt P11362); test: as above
Sequence of FGFR1 (P11362 whole entry, looked up): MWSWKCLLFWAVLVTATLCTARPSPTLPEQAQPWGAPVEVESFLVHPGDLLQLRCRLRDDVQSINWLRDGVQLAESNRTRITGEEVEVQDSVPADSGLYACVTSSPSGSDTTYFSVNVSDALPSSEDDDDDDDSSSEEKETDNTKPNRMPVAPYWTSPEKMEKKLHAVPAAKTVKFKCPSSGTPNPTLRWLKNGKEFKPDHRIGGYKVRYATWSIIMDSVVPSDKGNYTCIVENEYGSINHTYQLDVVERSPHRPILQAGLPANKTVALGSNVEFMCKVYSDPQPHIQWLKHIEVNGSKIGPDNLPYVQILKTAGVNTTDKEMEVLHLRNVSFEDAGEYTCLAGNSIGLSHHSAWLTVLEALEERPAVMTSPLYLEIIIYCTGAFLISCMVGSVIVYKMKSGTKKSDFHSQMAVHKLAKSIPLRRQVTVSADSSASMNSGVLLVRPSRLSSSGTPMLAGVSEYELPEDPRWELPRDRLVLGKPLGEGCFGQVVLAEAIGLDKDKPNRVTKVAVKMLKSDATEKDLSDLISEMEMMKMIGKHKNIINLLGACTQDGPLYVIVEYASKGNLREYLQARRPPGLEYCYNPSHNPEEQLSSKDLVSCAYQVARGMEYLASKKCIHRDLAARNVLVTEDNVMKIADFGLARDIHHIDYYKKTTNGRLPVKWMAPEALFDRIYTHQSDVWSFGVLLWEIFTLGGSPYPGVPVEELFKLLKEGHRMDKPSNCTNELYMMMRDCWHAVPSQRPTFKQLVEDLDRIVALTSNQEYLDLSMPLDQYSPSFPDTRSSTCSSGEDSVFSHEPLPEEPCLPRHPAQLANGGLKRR

Jak2 = Jak2 (UniProt O60674); test: as above
Sequence of Jak2 (O60674 whole entry, looked up): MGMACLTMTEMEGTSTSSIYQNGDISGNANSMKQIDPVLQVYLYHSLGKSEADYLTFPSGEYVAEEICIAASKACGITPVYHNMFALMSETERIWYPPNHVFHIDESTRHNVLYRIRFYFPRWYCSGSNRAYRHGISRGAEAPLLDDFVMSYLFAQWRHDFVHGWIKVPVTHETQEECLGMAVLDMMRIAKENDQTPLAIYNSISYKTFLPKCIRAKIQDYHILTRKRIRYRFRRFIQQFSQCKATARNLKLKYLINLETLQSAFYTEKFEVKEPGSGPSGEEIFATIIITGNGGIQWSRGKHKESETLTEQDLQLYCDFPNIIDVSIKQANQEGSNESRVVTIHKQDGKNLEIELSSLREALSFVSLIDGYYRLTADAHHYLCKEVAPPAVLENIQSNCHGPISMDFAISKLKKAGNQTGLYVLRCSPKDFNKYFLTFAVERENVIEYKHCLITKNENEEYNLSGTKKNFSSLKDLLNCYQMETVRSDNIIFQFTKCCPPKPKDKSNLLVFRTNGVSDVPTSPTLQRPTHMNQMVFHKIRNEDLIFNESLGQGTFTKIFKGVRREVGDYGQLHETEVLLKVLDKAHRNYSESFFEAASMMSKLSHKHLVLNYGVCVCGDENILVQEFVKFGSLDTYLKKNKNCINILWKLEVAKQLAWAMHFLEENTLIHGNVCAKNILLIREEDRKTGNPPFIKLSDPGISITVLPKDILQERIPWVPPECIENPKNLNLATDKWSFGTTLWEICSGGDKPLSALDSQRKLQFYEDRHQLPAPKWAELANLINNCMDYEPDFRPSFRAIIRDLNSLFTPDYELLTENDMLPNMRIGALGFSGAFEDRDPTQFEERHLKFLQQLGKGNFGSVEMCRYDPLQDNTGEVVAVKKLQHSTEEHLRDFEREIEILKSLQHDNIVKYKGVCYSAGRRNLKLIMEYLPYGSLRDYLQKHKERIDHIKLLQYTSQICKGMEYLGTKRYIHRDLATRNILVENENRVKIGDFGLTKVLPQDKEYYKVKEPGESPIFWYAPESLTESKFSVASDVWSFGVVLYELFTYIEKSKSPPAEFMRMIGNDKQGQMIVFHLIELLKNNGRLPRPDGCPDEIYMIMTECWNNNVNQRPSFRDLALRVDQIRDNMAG

EPHB2 = EPHB2 (UniProt P29323); test: as above
Sequence of EPHB2 (P29323 whole entry, looked up): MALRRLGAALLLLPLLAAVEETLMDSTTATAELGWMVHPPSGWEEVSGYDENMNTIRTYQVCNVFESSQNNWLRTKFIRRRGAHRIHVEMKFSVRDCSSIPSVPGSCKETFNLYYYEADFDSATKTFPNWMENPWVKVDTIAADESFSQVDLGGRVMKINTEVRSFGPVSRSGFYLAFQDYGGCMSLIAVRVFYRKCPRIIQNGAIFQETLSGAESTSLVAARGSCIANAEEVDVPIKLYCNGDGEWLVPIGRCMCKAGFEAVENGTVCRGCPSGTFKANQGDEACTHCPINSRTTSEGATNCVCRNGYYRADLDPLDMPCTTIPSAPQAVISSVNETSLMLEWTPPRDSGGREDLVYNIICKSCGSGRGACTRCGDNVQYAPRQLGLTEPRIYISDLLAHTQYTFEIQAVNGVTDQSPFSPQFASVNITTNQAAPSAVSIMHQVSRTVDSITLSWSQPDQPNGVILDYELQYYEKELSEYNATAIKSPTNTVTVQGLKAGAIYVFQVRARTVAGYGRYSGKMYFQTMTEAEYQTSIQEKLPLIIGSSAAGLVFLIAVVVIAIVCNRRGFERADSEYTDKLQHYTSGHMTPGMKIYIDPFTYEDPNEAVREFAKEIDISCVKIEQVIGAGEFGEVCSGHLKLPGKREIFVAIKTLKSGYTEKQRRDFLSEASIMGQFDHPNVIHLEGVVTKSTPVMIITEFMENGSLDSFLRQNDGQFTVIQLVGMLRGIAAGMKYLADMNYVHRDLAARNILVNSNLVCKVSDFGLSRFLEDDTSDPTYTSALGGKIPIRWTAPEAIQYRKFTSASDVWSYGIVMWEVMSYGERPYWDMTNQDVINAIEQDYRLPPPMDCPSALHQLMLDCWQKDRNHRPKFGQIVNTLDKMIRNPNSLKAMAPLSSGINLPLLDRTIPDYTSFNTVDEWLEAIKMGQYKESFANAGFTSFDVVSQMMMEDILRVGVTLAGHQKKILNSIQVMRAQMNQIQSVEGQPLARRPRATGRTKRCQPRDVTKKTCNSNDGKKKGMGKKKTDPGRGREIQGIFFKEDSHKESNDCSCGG

AncSZ = test: as above
SHP2-C SH2 = test: SH2 binding enrichment of the phosphorylated peptide, bacterial display (enrichment ratio); higher = better substrate or ligand; peptides without Tyr show the background
Grb2 SH2 = Grb2 SH2 (UniProt P62993); test: as above
Sequence of Grb2 SH2 (P62993 whole entry, looked up): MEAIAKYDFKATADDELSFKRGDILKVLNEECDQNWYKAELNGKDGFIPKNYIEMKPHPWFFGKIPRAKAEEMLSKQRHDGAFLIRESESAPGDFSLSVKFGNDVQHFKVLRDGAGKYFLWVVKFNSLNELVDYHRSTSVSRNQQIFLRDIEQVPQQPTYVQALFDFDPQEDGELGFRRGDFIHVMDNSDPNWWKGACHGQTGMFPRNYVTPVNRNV

c-Src SH2 = test: as above
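For SH2 binding enrichment of the phosphorylated peptide, bacterial display in this document: peptide library displayed on the E. coli surface as eCPX fusions, selected cells deep-sequenced, score is each peptide's frequency after selection divided by its frequency in the input.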
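For phosphorylation enrichment, bacterial display in this document: 11-residue human phosphosite peptides and single-mutation variants displayed on the E. coli surface, counted by deep sequencing, each peptide's frequency after selection divided by its frequency in the unselected input library; frequency after pTyr selection over input frequency; kinase dosed for 20-30% of maximal phosphorylation in three min.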

| Sequence | phosphorylation enrichment (c-Src) | phosphorylation enrichment (EPHB1) | phosphorylation enrichment (MERTK) | phosphorylation enrichment (c-Abl (mouse)) | phosphorylation enrichment (Fyn) | phosphorylation enrichment (Fes) | phosphorylation enrichment (Fer (mouse)) | phosphorylation enrichment (Hck) | phosphorylation enrichment (FGFR3) | phosphorylation enrichment (FGFR1) | phosphorylation enrichment (Jak2) | phosphorylation enrichment (EPHB2) | phosphorylation enrichment (AncSZ) | SH2 binding enrichment (SHP2-C SH2) | SH2 binding enrichment (Grb2 SH2) | SH2 binding enrichment (c-Src SH2) |
| --- | --- | --- | --- | --- | --- | --- | --- | --- | --- | --- | --- | --- | --- | --- | --- | --- |
| FTRNFYVQAVL [CYBA_Y88_R90Q_YF] | 0.474 | 0.81 | 0.494 | 0.742 | 0.435 | 1.31 | 0.654 | 0.483 | 0.795 | 0.563 | 1.15 | 0.57 | 0.993 | 0.78 | 0.837 | 0.421 |
| FVHDNYVIQRT [CPS1_Y1450_R1453Q] | 0.481 | 2.19 | 0.469 | 0.52 | 0.425 | 0.672 | 0.694 | 0.436 | 0.567 | 0.481 | 0.7 | 1.07 | 0.788 | 0.596 | 0.971 | 0.624 |
| FVPSNYVAEDR [FRK_Y104_I100V_YF] | 0.35 | 0.527 | 0.38 | 0.625 | 0.439 | 0.827 | 0.409 | 0.431 | 0.662 | 0.447 | 0.642 | 0.625 | 0.782 | 0.76 | 0.788 | 0.588 |
| GCRSKHVGLWG [KCNQ1_Y184_Y184H] | 0.359 | 0.316 | 0.397 | 0.516 | 0.385 | 0.481 | 0.325 | 0.328 | 0.388 | 0.36 | 0.409 | 0.314 | 0.518 | 0.906 | 1.17 | 0.86 |
| GEDEPYAEPFA [APBA1_Y183_S184A_YF] | 0.649 | 0.584 | 0.547 | 0.814 | 0.462 | 1.21 | 0.569 | 0.593 | 0.872 | 0.607 | 1.47 | 0.571 | 1.43 | 0.652 | 1.08 | 0.636 |
| GESKDYALHVG [SVIL_Y185] | 0.416 | 1.92 | 0.468 | 0.502 | 0.463 | 0.798 | 0.436 | 0.461 | 0.532 | 0.469 | 0.461 | 0.721 | 0.606 | 0.612 | 0.815 | 0.452 |
| GFILMYDITNE [RAB3C_Y110] | 0.559 | 1.06 | 0.678 | 0.8 | 0.526 | 1.66 | 0.692 | 0.633 | 0.975 | 0.49 | 1.38 | 1.6 | 1.33 | 0.962 | 1.05 | 0.674 |
| GGKFSYLKVGH [GRM3_Y480_YF] | 0.411 | 0.409 | 0.463 | 0.494 | 0.361 | 0.619 | 0.344 | 0.371 | 0.519 | 0.512 | 0.642 | 0.368 | 0.634 | 0.525 | 0.901 | 0.401 |
| GGRKGYGGFSR [RECQL5_Y478_D480G] | 0.487 | 0.393 | 0.512 | 0.506 | 0.513 | 0.491 | 0.36 | 0.42 | 0.452 | 0.391 | 0.51 | 0.396 | 0.551 | 0.571 | 0.736 | 0.453 |
| GHEFIYVDPMQ [PDGFRA_Y574_YF] | 2.6 | 5.23 | 2.36 | 6.67 | 2.2 | 0.986 | 1.91 | 2.96 | 7.52 | 10.8 | 0.818 | 6.63 | 1.85 | 0.661 | 0.821 | 0.563 |
| GHLFAYNWISI [BEST1_Y227_D228N_YF] | 0.392 | 0.51 | 0.548 | 0.58 | 0.488 | 1.06 | 4.77 | 0.444 | 1.21 | 1.34 | 0.978 | 0.469 | 0.962 | 1.13 | 0.993 | 0.916 |
| GHLYACDWISI [BEST1_Y227_Y227C] | 1.34 | 1.3 | 4.89 | 1.05 | 1.06 | 1.43 | 0.677 | 0.846 | 1.06 | 0.902 | 1.18 | 0.929 | 1.21 | 0.676 | 0.799 | 0.771 |
| GHRPVYSEDEQ [CHST6_Y362_Y358H] | 0.48 | 0.429 | 0.437 | 0.757 | 0.474 | 1.13 | 0.501 | 0.564 | 0.707 | 0.495 | 0.894 | 0.523 | 1.05 | 0.736 | 1.1 | 0.641 |
| GIFSGYDDAWD [POLR1C_Y36_N32I_YF] | 0.514 | 0.51 | 0.481 | 0.746 | 0.551 | 1.14 | 0.477 | 0.547 | 0.7 | 0.531 | 1.07 | 0.651 | 1.1 | 0.695 | 0.968 | 4.13 |
| GINDDYGQLKN [NBN_Y679] | 0.613 | 0.364 | 0.296 | 0.499 | 0.528 | 1.1 | 0.474 | 0.874 | 0.61 | 0.499 | 0.829 | 0.514 | 0.841 | 1.42 | 0.92 | 0.494 |
| GIPIQYPIISE [NOG_Y222_W217G] | 0.409 | 0.55 | 0.447 | 0.888 | 0.541 | 1.11 | 0.467 | 0.446 | 0.685 | 0.627 | 1.02 | 0.587 | 0.868 | 0.457 | 0.847 | 0.498 |
